Target: 6xHis-eugenol-oxidase-StrepTag-II (recombinant eugenol oxidase from Rhodococcus jostii) (Rhodococcus sp. RHA1)
Assay: SEC; pure EUGO on Superdex 200 10/300 GL (AKTA Pure), 100 uL loaded, 0.5 mL/min, running buffer 50 mM Tris-Base pH 8 with 150 mM NaCl; size estimated from a protein standard mix (15-600 kDa)

Substance: 6xHis-eugenol-oxidase-StrepTag-II (recombinant eugenol oxidase from Rhodococcus jostii) (enzyme)
- stoichiometry N: 2
